Literature values, collected in article PMC3124085.

Molecular target: HIV-1 Gag p6 p6 (Human immunodeficiency virus 1) (UniProt O93182)
Sequence (O93182 450-500): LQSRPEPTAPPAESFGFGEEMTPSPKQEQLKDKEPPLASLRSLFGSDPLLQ

TSG101 UEV, sequence (Q99816 1-148): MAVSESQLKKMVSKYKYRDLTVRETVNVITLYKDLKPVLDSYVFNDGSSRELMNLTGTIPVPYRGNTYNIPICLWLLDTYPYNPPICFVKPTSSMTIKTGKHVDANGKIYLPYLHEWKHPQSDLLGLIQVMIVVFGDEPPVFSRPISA

TSG101 UEV (from UniProt Q99816)
Kd: 27 µM
